Source: patent US12630600B2 (MEDIMMUNE LIMITED, priority 2022, dated 2026)
Where “and” joins values, the source holds several entries; their conditions need not be identical. Equal values may be shown once. Read-outs that look alike come from different tables or passages of the source. Starred links: 1 amine or outer side, 2 acyl side, 3 side chain; linkers in the order of their positions; H or OH if unused. Non-standard residues stand in square brackets, D forms with d. Residues, ends and D or L forms follow the SMILES beside them. Groups on a side chain read outwards from the residue. Primed or numbered codes have the meaning given here. No end group written: not given here. *: point of attachment. β‑dimethylArg = (S)-2-amino-5-guanidino-3,3-dimethylpentanoic acid, CC(C)(CCNC(=N)N)[C@H](N[*:1])C(=O)[*:2]; C20 diacid = O=C(O)CCCCCCCCCCCCCCCCCCC(=O)*; C18 diacid = O=C(O)CCCCCCCCCCCCCCCCC(=O)*; Dip = N[C@H](C(=O)O)C(c1ccccc1)c1ccccc1; γGlu = O=C(O)[C@H](CCC(=O)[*:2])N[*:1]; Palmitoyl = CCCCCCCCCCCCCCCC(=O)*; αMeF = C[C@](N)(Cc1ccccc1)C(=O)O; Myristoyl = CCCCCCCCCCCCCC(=O)*; (PEG)2 = polyethylene glycol 2; PEG2′ = polyethylene glycol 2; AEEA = NCCOCCOCC(=O)O; Aib = CC(C)(N)C(=O)O

Assays:
[1] = molecular target: T1, Semaglutide (synthetic construct)
T1 sequence (peptide, Aib at 2; X20=Lys[O2Oc-O2Oc-γE-C18diacid]; C-terminal acid): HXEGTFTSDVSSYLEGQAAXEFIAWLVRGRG

[2] = molecular target: T1, Semaglutide (synthetic construct); remark: listed apart in the source
[3] = test system: GLP-1R knockout mice; assay: Glucose change in GLP-1R knockout mice; assay type: in vivo, mouse; details: GLP-1R KO mice, s.c., no somatostatin pretreatment
Protocol: (§1) They acclimated for a minimum of ˜1-2 weeks, and mice were sorted into groups (n=4-8/group) based on body weight. On day of study, mice were fasted briefly for 2 hrs prior to study start. In some studies, mice were pre-treated with octreotide (BaChem, 10 mg/kg) at 30 minutes prior to peptide injection. Glucose was measured via glucometer at various timepoints including −30 min (prior to octreotide when used in studies), 0 min (before peptide dose), 30, 60, 120, 180, 240, and 360 minutes. Since these studies are acute in nature, mice were re-used for multiple studies (no more than 3) and always allowed at least a minimum wash-out period of 1 week.

[4] = test system: wildtype (WT) mice; assay: Glucose change in wildtype mice; assay type: in vivo, mouse; details: s.c., no somatostatin pretreatment
Protocol: as §1, with “[…] and wildtype (WT) mice at 8-14 weeks of age were singly housed on standard chow diet (Envigo, 2918) and automatic water. They” for “They”

[5] = test system: Male C57Bl/6 mice; assay: Mouse acute food intake study; assay type: in vivo; details: s.c., food intake at 24 h vs vehicle
Protocol: Male C57Bl/6 mice obtained from Jackson Laboratories or Charles River at 8-9 weeks of age and were housed one per cage in BioDaq (Research Diets) cages. Mice were placed on Alpha Dri bedding, standard chow diet (Envigo, 2018) and given water pouches. Mice were allowed to acclimate for 1-2 weeks. Body weight was measured to ensure appropriate acclimation. After acclimation, mice were sham dosed a minimum of 2 times prior to initiation of food intake study. On study day, mice were placed in clean cage bottoms, weighed, and fasted for 6-8 hours. Mice were sorted into groups based on average 24-hour food intake data and body weight. 1-2 hours prior to lights out, mice were dosed subcutaneously with one vehicle or test peptide dissolved in an appropriate vehicle at 5 mL/kg. Mice were left undisturbed and allowed access to food and water for 48 hours. Automated food intake was monitored in the BioDaq system was monitored during this time. Discrete food intake data was exported into MS Excel from which cumulative food intake data was generated and analyzed.

[6] = molecular target: T2, human GLP-1 receptor (human, UniProt P43220); assay: cell-based or functional assay
[7] = molecular target: T3, human glucagon receptor (human, UniProt P47871); assay: cell-based or functional assay
[8] = molecular target: T2, human GLP-1 receptor; assay: cell-based or functional assay; remark: listed apart in the source
[9] = molecular target: T3, human glucagon receptor; assay: cell-based or functional assay; remark: listed apart in the source
[10] = molecular target: T2, human GLP-1 receptor; assay: cell-based or functional assay; remark: listed apart in the source
[11] = molecular target: T3, human glucagon receptor; assay: cell-based or functional assay; remark: listed apart in the source
[12] = molecular target: GLP-1R of the mouse (present in wildtype mice, absent in GLP-1R knockout mice) (mouse, UniProt O35659); assay: cell-based or functional assay
[13] = molecular target: human GLP-1 receptor (human, UniProt P43220); assay: cell-based or functional assay; remark: listed apart in the source
[14] = molecular target: human glucagon receptor (human, UniProt P47871); assay: cell-based or functional assay; remark: listed apart in the source

recombinant Neprilysin (from UniProt P08473) (enzyme)
% intact peptide over time, 24 hr (% intact peptide at 24 hr) [1]: 48

porcine pancreatic pepsin (from UniProt P00791) (enzyme)
% intact peptide over time (min), 30 (% intact peptide at 30 min) [2]: 14

CC[C@H](C)[C@H](NC(=O)[C@H](Cc1c[nH]c2ccccc12)NC(=O)[C@H](CCC(N)=O)NC(=O)[C@@H](NC(=O)[C@H](Cc1ccccc1)NC(=O)[C@H](CC(=O)O)NC(=O)[C@H](CCCCNC(=O)COCCOCCNC(=O)COCCOCCNC(=O)CC[C@H](NC(=O)CC[C@H](NC(=O)CCCCCCCCCCCCCCCCCCC(=O)O)C(=O)O)C(=O)O)NC(=O)[C@H](C)NC(=O)[C@H](C)NC(=O)[C@H](CCCNC(=N)N)NC(=O)[C@H](CO)NC(=O)[C@H](CC(=O)O)NC(=O)[C@H](CC(C)C)NC(=O)[C@H](Cc1ccc(O)cc1)NC(=O)[C@H](CCCCN)NC(=O)[C@H](CO)NC(=O)[C@@H](NC(=O)[C@H](CC(=O)O)NC(=O)[C@H](CO)NC(=O)[C@@H](NC(=O)[C@](C)(Cc1ccccc1)NC(=O)[C@H](CO)NC(=O)CNC(=O)[C@H](Cc1c[nH]cn1)NC(=O)C(C)(C)NC(=O)[C@@H](N)Cc1c[nH]cn1)[C@@H](C)O)C(C)C)C(C)C)C(=O)N[C@@H](C)C(=O)N[C@@H](CC(N)=O)C(=O)N[C@H](C(N)=O)[C@@H](C)O [Peptide 289] (H-H[Aib]HGS[αMeF]TSDVSKYLDSRAAK([AEEA-AEEA-γGlu-γGlu-C20 diacid])DFVQWIANT-NH2; N-terminus assumed)
GLP-1R KO % glucose change 120 min ([3]; 10 nmol/kg): 8.9%
GLP-1R KO % glucose change 120 min ([3]; 30 nmol/kg): 7.7%
WT % glucose change 120 min ([4]; 10 nmol/kg): −8.5%

H-Aib-Q-G-T-F-T-S-D-V-S-K-αMePhe-L-D-T-K-R-A-R-D-F-V-Q-W-L-L-E-Aib-G-acid [Peptide 195]
24 hr % Vehicle Food Intake ([5]; dose 1 nmol/kg): 102.1%
24 hr % Vehicle Food Intake ([5]; dose 3 nmol/kg): 84.0%
24 hr % Vehicle Food Intake ([5]; dose 10 nmol/kg): 58.2% and 49.9%
GLP-1R KO % glucose change −60 min ([3]; 10 nmol/kg): 35.3%
GLP-1R KO % glucose change −60 min ([3]; 30 nmol/kg): 48.0%
WT % glucose change 60 min ([4]; 10 nmol/kg): 1.4%
WT % glucose change 60 min ([4]; 30 nmol/kg): −17.0%

B1: Peptide 379 (peptide)
peptide: H[Aib]HGS[αMeF]TSDVSK[αMeF]LDSRAAQD[αMeF]VK([AEEA-AEEA-γGlu-C18 diacid])SIANT-NH2
modifications: not fully specified
hGLP-1R EC50 (pM) [6]: 71.8 pM
hGluc-R EC50 (pM) [7]: 85.7 pM

B2: Peptide 382 (peptide)
peptide: H[Aib]HGS[αMeF]TSDVSK[αMeF]LDSR[Aib]AQDFVK([AEEA-AEEA-γGlu-γGlu-C18 diacid])SIANTGG-NH2
modifications: N-terminus assumed
SMILES: CC[C@H](C)[C@H](NC(=O)[C@H](CO)NC(=O)[C@H](CCCCNC(=O)COCCOCCNC(=O)COCCOCCNC(=O)CC[C@H](NC(=O)CC[C@H](NC(=O)CCCCCCCCCCCCCCCCC(=O)O)C(=O)O)C(=O)O)NC(=O)[C@@H](NC(=O)[C@H](Cc1ccccc1)NC(=O)[C@H](CC(=O)O)NC(=O)[C@H](CCC(N)=O)NC(=O)[C@H](C)NC(=O)C(C)(C)NC(=O)[C@H](CCCNC(=N)N)NC(=O)[C@H](CO)NC(=O)[C@H](CC(=O)O)NC(=O)[C@H](CC(C)C)NC(=O)[C@](C)(Cc1ccccc1)NC(=O)[C@H](CCCCN)NC(=O)[C@H](CO)NC(=O)[C@@H](NC(=O)[C@H](CC(=O)O)NC(=O)[C@H](CO)NC(=O)[C@@H](NC(=O)[C@](C)(Cc1ccccc1)NC(=O)[C@H](CO)NC(=O)CNC(=O)[C@H](Cc1c[nH]cn1)NC(=O)C(C)(C)NC(=O)[C@@H](N)Cc1c[nH]cn1)[C@@H](C)O)C(C)C)C(C)C)C(=O)N[C@@H](C)C(=O)N[C@@H](CC(N)=O)C(=O)N[C@H](C(=O)NCC(=O)NCC(N)=O)[C@@H](C)O
hGLP-1R EC50 (pM) [6]: 56 pM
hGluc-R EC50 (pM) [7]: 329 pM

B3: Peptide 384 (peptide)
peptide: H[Aib]HGS[αMeF]TSDVSK[αMeF]LDSQAAQD[αMeF]VK([AEEA-AEEA-γGlu-γGlu-C20 diacid])[Aib]IANT-NH2
hGLP-1R EC50 (pM) [6]: 797 pM
hGluc-R EC50 (pM) [7]: 1240 pM

B4: Peptide 392 of Table 9 (peptide)
peptide: H[Aib]HGS[αMeF]TSDK([AEEA-AEEA-γGlu-C18 diacid])SK[αMeF]LDSRAAQD[αMeF]VQ[Aib]IANT-NH2
modifications: N-terminus assumed
SMILES: CC[C@H](C)[C@H](NC(=O)C(C)(C)NC(=O)[C@H](CCC(N)=O)NC(=O)[C@@H](NC(=O)[C@](C)(Cc1ccccc1)NC(=O)[C@H](CC(=O)O)NC(=O)[C@H](CCC(N)=O)NC(=O)[C@H](C)NC(=O)[C@H](C)NC(=O)[C@H](CCCNC(=N)N)NC(=O)[C@H](CO)NC(=O)[C@H](CC(=O)O)NC(=O)[C@H](CC(C)C)NC(=O)[C@](C)(Cc1ccccc1)NC(=O)[C@H](CCCCN)NC(=O)[C@H](CO)NC(=O)[C@H](CCCCNC(=O)COCCOCCNC(=O)COCCOCCNC(=O)CC[C@H](NC(=O)CCCCCCCCCCCCCCCCC(=O)O)C(=O)O)NC(=O)[C@H](CC(=O)O)NC(=O)[C@H](CO)NC(=O)[C@@H](NC(=O)[C@](C)(Cc1ccccc1)NC(=O)[C@H](CO)NC(=O)CNC(=O)[C@H](Cc1c[nH]cn1)NC(=O)C(C)(C)NC(=O)[C@@H](N)Cc1c[nH]cn1)[C@@H](C)O)C(C)C)C(=O)N[C@@H](C)C(=O)N[C@@H](CC(N)=O)C(=O)N[C@H](C(N)=O)[C@@H](C)O
hGLP-1R EC50 (pM) [8]: 312 pM
hGluc-R EC50 (pM) [9]: 6920 pM

B5: Peptide 393 of Table 9 (peptide)
peptide: H[Aib]HGS[αMeF]TSDK([AEEA-AEEA-γGlu-C18 diacid])SK[αMeF]LDSRAAQD[αMeF]VQ[Aib]IANT
modifications: not fully specified (C-terminus)
hGLP-1R EC50 (pM) [8]: 0.458 pM

B6: Peptide 406 of Table 10 (peptide)
peptide: H[Aib]HGS[αMeF]TSDVSKKLDSRAAQD[αMeF]VQ[Aib]IANT-NH2
modifications: not fully specified (residue 13)
hGLP-1R EC50 (pM) [10]: 458 pM
hGluc-R EC50 (pM) [11]: 7310 pM

B7: Peptide 63 (peptide)
peptide: HSQGS[αMeF]TSDVSK[Dip]LDSK([PEG2′-PEG2′-γGlu-γGlu-Myristoyl])AAQD[αMeF]VE[Aib]IINT-NH2
WT % glucose change 120 min [12]: -26.4 % glucose change at 120 min, WT mice, 10 nmol/kg

B8: Peptide 126 (peptide)
peptide: H[Aib]QGS[αMeF]TSDVSKILDSK([(PEG)2-(PEG)2-γGlu-γGlu-Myristoyl])AAQD[αMeF]VQ[Aib]IINT-NH2
WT % glucose change 120 min [12]: -46.2 % glucose change at 120 min, WT mice, 30 nmol/kg

B9: Peptide 399 (peptide)
peptide: HSQGS[αMeF]TSDVSKK([(PEG)2-(PEG)2-γGlu-γGlu-Palmitoyl])LDS[β‑dimethylArg]AAQD[αMeF]VE[Aib]LANT-NH2
WT % glucose change 120 min [12]: -45 % glucose change at 120 min, WT mice, 30 nmol/kg

B10: Peptide 289 (peptide)
peptide: H[Aib]HGS[αMeF]TSDVSK[αMeF]LDSRAAKD[αMeF]VQWIANT-NH2
modifications: not fully specified (residue 20); also: X13: αMePhe or Y (table)
WT % glucose change 120 min [12]: -16.1 % glucose change at 120 min, WT mice, 30 nmol/kg

B11: Peptide 186 (peptide)
peptide: H[Aib]QGTFTSDVSK[αMeF]LDTK([AEEA-AEEA-γGlu-C18 diacid])RAQDFVRWLLEAG-OH
hGLP-1R EC50 (pM), cAMP production (HTRF) [13]: 44.9 pM
hGluc-R EC50 (pM), cAMP production (HTRF) [14]: 101 pM

B12: Peptide 357 (peptide)
peptide: HXHGSXTSDVSKXLDSQAAQDFVXWIANT
modifications: Aib at 2; αMePhe at 6, 13; Lys 24 acylated K(γE-γE-(PEG)2-γE-γE-C20diacid)24; C-terminal amide
hGLP-1R EC50 (pM) [6]: 917 pM
hGluc-R EC50 (pM) [7]: 550 pM
